According to publication PMC8228714, “Structural Constraint of Osteopontin Facilitates Efficient Binding to CD44” (Biomolecules, 2021):

What was measured:
[1] = target: extracellular portion of integrin αVβ3 (R&D Systems) (UniProt P06756); assay: ELISA; receptor (CD44v or integrin) plated on a high-binding 96-well plate, GST-OPN in solution 2 h at room temperature; 10 mM HEPES pH 7.4, 150 mM NaCl, 2 mM MnCl2, 0.05% Tween 20; detection with HRP-anti-GST; constants from double-reciprocal plots
[2] = target: Recombinant extracellular domain of CD44 (aa21–606), His- and SUMO-tags (Lifespan Biosciences); assay: as above
[3] = target: truncated version of CD44v (MyBiosource); assay: as above
[4] = target: T1, extracellular portion of integrin α9β1 (R&D Systems) (UniProt Q13797 30-977; P05556 21-728); assay: SPR; BIACORE 2000, CM5 chip; about 8000 RU of GST-OPN, CD44v or integrin α9β1 immobilised by amine coupling, BSA control flow cell; one protein in the flow, 50 μL/min, 120 s; 10 mM HEPES, 150 mM NaCl, pH 7.4, 0.05% Tween 20, 0.4 mM MnCl2, 25 °C; settings: both partners purified
T1 construct: also called α9β1 extracellular domain; source: bought: R&D Systems
T1 sequence (Q13797 30-977, chain 1 of 2): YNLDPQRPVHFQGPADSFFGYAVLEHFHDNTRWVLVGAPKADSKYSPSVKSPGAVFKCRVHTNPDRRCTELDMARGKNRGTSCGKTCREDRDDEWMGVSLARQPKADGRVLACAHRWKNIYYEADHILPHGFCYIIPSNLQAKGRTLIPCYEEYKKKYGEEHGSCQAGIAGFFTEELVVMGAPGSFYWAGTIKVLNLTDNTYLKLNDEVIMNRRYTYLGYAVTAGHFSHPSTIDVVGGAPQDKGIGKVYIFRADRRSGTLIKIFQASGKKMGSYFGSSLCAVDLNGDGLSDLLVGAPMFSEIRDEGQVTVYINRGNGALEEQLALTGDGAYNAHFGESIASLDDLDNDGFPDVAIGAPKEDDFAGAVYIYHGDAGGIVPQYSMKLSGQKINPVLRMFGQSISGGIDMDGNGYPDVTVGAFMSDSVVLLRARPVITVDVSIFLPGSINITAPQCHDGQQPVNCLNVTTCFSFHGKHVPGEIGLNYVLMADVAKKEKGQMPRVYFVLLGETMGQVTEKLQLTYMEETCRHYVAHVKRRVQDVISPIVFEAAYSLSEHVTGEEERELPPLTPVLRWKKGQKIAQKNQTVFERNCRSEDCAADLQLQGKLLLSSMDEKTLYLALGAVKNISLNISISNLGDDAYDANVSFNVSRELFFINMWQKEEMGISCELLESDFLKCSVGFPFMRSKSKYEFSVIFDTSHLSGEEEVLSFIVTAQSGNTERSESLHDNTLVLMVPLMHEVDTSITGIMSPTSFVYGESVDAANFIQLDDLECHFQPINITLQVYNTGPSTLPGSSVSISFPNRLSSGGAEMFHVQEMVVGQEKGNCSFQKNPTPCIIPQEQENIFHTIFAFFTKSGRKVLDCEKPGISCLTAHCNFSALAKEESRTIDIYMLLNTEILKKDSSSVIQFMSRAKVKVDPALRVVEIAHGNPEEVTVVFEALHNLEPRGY
T1 sequence (P05556 21-728, chain 2 of 2): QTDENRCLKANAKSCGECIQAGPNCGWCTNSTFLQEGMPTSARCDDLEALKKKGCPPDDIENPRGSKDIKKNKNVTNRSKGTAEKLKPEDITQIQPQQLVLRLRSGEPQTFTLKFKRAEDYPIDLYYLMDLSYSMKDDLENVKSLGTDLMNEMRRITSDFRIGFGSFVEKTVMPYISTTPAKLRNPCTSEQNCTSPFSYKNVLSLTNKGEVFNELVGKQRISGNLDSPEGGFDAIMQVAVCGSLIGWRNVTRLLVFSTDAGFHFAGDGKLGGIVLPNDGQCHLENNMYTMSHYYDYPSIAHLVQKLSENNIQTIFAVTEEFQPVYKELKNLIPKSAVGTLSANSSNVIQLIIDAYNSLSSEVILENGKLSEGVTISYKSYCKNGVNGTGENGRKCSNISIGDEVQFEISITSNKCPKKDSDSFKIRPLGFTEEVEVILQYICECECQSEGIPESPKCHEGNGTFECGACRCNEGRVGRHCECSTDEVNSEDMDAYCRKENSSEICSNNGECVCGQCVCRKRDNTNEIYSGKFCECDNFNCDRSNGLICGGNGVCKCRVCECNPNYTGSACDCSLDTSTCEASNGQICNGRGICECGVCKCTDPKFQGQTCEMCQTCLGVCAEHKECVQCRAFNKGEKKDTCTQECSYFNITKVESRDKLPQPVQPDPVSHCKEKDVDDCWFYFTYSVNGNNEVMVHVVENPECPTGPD

truncated version of CD44v (MyBiosource), sequence (P16070 21-742): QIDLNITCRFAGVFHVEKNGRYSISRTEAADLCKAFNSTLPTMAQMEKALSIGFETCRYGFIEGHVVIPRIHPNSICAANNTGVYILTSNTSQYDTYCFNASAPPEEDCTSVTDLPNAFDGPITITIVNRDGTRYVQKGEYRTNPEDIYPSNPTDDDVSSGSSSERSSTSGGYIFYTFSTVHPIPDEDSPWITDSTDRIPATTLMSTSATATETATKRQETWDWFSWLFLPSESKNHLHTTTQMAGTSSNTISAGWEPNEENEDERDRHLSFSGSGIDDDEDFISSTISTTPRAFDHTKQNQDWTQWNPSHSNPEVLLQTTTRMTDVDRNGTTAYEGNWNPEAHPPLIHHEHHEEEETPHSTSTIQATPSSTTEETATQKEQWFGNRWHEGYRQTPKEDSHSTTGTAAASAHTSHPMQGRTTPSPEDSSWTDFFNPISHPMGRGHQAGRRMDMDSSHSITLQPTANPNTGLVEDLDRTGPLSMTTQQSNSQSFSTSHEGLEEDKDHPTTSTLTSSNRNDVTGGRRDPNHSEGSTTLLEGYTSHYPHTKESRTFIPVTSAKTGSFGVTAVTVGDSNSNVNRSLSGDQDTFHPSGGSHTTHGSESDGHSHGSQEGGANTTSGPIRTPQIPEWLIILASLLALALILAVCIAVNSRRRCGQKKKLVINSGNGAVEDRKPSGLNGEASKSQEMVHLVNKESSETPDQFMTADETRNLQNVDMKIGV

**Q.** With GST-OPNb (ligand) as the molecule, how does the half-maximal binding concentration (OPN titrated 7.8–500 ng, aVb3 200 ng, taken from the row above) [1] read?
**A.** Its half-maximal binding concentration (OPN titrated 7.8–500 ng, aVb3 200 ng, taken from the row above) is 502 ng.

**Q.** “GST-OPNc (from UniProt P10451-3 17-287) (ligand)” was tested. Which half-maximal binding concentration (OPN titrated 7.8–500 ng, aVb3 200 ng, taken from the rows above) [1] did it give?
**A.** Its half-maximal binding concentration (OPN titrated 7.8–500 ng, aVb3 200 ng, taken from the rows above) is 314 ng.

**Q.** What does the source list for “Bacterial recombinant GST-OPNa (after deletion of the signal sequence) (from UniProt P10451-1 17-314) (ligand)”?
**A.** half-maximal binding concentration (CD44 titrated 0–1000 ng, OPN 125 ng) [2]: 95.5 ng; half-maximal binding concentration (CD44 titrated 0–1000 ng, OPN 250 ng) [2]: 60.9 ng; half-maximal binding concentration (CD44 titrated 0–1000 ng, OPN 500 ng) [2]: 107 ng; half-maximal binding concentration (CD44 titrated 0–1000 ng, OPN 1000 ng) [2]: 151 ng; half-maximal binding concentration (CD44 titrated 0–1000 ng, OPN 2000 ng) [2]: 123 ng; half-maximal binding concentration (CD44 titrated 0–1000 ng, OPN 4000 ng) [2]: 138 ng; half-maximal binding concentration (OPN titrated 125–500 ng, CD44 65 ng) [2]: 0.77 ng; half-maximal binding concentration (OPN titrated 125–500 ng, CD44 125 ng) [2]: 8.09 ng; half-maximal binding concentration (OPN titrated 125–500 ng, CD44 250 ng) [2]: 40.5 ng; half-maximal binding concentration (OPN titrated 125–500 ng, CD44 500 ng) [2]: 50.8 ng; half-maximal binding concentration (OPN titrated 125–500 ng, CD44 1000 ng) [2]: 60.3 ng; fold lower affinity than for LSBio CD44v [3]: 8 fold

B1: extracellular portion of integrin αVβ3 (R&D Systems) (receptor)
chain 1: FNLDVDSPAEYSGPEGSYFGFAVDFFVPSASSRMFLLVGAPKANTTQPGIVEGGQVLKCDWSSTRRCQPIEFDATGNRDYAKDDPLEFKSHQWFGASVRSKQDKILACAPLYHWRTEMKQEREPVGTCFLQDGTKTVEYAPCRSQDIDADGQGFCQGGFSIDFTKADRVLLGGPGSFYWQGQLISDQVAEIVSKYDPNVYSIKYNNQLATRTAQAIFDDSYLGYSVAVGDFNGDGIDDFVSGVPRAARTLGMVYIYDGKNMSSLYNFTGEQMAAYFGFSVAATDINGDDYADVFIGAPLFMDRGSDGKLQEVGQVSVSLQRASGDFQTTKLNGFEVFARFGSAIAPLGDLDQDGFNDIAIAAPYGGEDKKGIVYIFNGRSTGLNAVPSQILEGQWAARSMPPSFGYSMKGATDIDKNGYPDLIVGAFGVDRAILYRARPVITVNAGLEVYPSILNQDNKTCSLPGTALKVSCFNVRFCLKADGKGVLPRKLNFQVELLLDKLKQKGAIRRALFLYSRSPSHSKNMTISRGGLMQCEELIAYLRDESEFRDKLTPITIFMEYRLDYRTAADTTGLQPILNQFTPANISRQAHILLDCGEDNVCKPKLEVSVDSDQKKIYIGDDNPLTLIVKAQNQGEGAYEAELIVSIPLQADFIGVVRNNEALARLSCAFKTENQTRQVVCDLGNPMKAGTQLLAGLRFSVHQQSEMDTSVKFDLQIQSSNLFDKVSPVVSHKVDLAVLAAVEIRGVSSPDHVFLPIPNWEHKENPETEEDVGPVVQHIYELRNNGPSSFSKAMLHLQWPYKYNNNTLLYILHYDIDGPMNCTSDMEINPLRIKISSLQTTEKNDTVAGQGERDHLITKRDLALSEGDIHTLGCGVAQCLKIVCQVGRLDRGKSAILYVKSLLWTETFMNKENQNHSYSLKSSASFNVIEFPYKNLPIEDITNSTLVTTNVTWGIQPAPMPV
chain 2: GPNICTTRGVSSCQQCLAVSPMCAWCSDEALPLGSPRCDLKENLLKDNCAPESIEFPVSEARVLEDRPLSDKGSGDSSQVTQVSPQRIALRLRPDDSKNFSIQVRQVEDYPVDIYYLMDLSYSMKDDLWSIQNLGTKLATQMRKLTSNLRIGFGAFVDKPVSPYMYISPPEALENPCYDMKTTCLPMFGYKHVLTLTDQVTRFNEEVKKQSVSRNRDAPEGGFDAIMQATVCDEKIGWRNDASHLLVFTTDAKTHIALDGRLAGIVQPNDGQCHVGSDNHYSASTTMDYPSLGLMTEKLSQKNINLIFAVTENVVNLYQNYSELIPGTTVGVLSMDSSNVLQLIVDAYGKIRSKVELEVRDLPEELSLSFNATCLNNEVIPGLKSCMGLKIGDTVSFSIEAKVRGCPQEKEKSFTIKPVGFKDSLIVQVTFDCDCACQAQAEPNSHRCNNGNGTFECGVCRCGPGWLGSQCECSEEDYRPSQQDECSPREGQPVCSQRGECLCGQCVCHSSDFGKITGKYCECDDFSCVRYKGEMCSGHGQCSCGDCLCDSDWTGYYCNCTTRTDTCMSSNGLLCSGRGKCECGSCVCIQPGSYGDTCEKCPTCPDACTFKKECVECKKFDRGALHDENTCNRYCRDEIESVKELKDTGKDAVNCTYKNEDDCVVRFQYYEDSSGKSILYVVEEPECPKGPD
notes: also called aVb3; source: bought: R&D Systems
**Q.** Does B1 bind [4]?
**A.** Result: binds
